Reference: patent US20250197501A1

Assays:
[1] = target: human B7-H3 on the surface of human cancer cells (human) (UniProt Q5ZPR3); assay: flow cytometry, DU145 cells
[2] = target: human B7-H3 on the surface of human cancer cells (human) (UniProt Q5ZPR3); assay: flow cytometry, Huh7 cells
[3] = target: human B7-H3 on the surface of human cancer cells (human) (UniProt Q5ZPR3); assay: flow cytometry, Detroit 562 cells
[4] = target: human B7-H3 on the surface of human cancer cells (human) (UniProt Q5ZPR3); assay: flow cytometry, OECM-1 cells
[5] = target: human B7-H3 on the surface of human cancer cells (human) (UniProt Q5ZPR3); assay: flow cytometry, NCI-H520 cells
[6] = target: human B7-H3 on the surface of human cancer cells (human) (UniProt Q5ZPR3); assay: flow cytometry, HepG2 cells
[7] = target: human B7-H3 on the surface of human cancer cells (human) (UniProt Q5ZPR3); assay: flow cytometry, H1299 cells
[8] = target: human B7-H3 on the surface of human cancer cells (human) (UniProt Q5ZPR3); assay: flow cytometry, A549 cells
[9] = target: human B7-H3 on the surface of human cancer cells (human) (UniProt Q5ZPR3); assay: flow cytometry, LNCaP cells
[10] = target: human B7-H3 on the surface of human cancer cells (human) (UniProt Q5ZPR3); assay: flow cytometry, HA59T cells
[11] = target: human B7-H3 on the surface of human cancer cells (human) (UniProt Q5ZPR3); assay: flow cytometry, PC-3 cells
[12] = target: human B7-H3 on the surface of human cancer cells (human) (UniProt Q5ZPR3); assay: flow cytometry, CAL 27 cells

Measured: MFI value

Chain of human B7-H3 on the surface of human cancer cells (human) (Q5ZPR3 29-534 limits assumed): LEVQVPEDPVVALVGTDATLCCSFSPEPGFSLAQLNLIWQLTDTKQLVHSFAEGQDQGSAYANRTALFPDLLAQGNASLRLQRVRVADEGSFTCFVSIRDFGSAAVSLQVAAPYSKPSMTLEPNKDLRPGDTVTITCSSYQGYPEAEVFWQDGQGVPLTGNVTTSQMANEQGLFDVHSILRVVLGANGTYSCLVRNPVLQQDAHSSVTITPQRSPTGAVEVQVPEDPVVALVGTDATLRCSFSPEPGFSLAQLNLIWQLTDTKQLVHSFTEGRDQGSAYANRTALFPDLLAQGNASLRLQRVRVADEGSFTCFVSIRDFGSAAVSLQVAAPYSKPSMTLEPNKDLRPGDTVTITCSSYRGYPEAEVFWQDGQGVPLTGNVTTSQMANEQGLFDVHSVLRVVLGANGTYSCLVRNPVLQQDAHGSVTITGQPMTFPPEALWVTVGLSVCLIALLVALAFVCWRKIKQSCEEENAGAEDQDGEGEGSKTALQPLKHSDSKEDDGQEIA

IgG (isotype control antibody)
< 600 MFI: all assays above
